Data on 4 molecules can be found in patent US20120121583A1 (Genentech, published 2012).

Test [1] concerns the target T1, Biotinylated TWEAK (Homo sapiens (Human), UniProt O43508 99-249, Biotinylated for capture on the streptavidin sensor; the site or sites of biotinylation are not stated. The active form is a soluble homotrimer; one protomer is given.).
T1 sequence: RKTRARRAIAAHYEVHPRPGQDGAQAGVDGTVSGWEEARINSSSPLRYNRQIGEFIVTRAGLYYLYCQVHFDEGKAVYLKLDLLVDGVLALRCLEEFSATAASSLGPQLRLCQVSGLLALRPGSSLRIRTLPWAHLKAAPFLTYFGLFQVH
Nature of the test: Biacore cross-blocking on immobilised biotinylated TWEAK; binding of antibody 2 after saturation with competitor antibody 1 TW-304chi (row), 100 nM each. The protocol: (§1) Because of the individual biochemical properties of the TWEAK protein another method had to be developed using TWEAK as ligand. Biotinylated TWEAK was immobilized on the streptavidin-coated chip surface and epitope coverage of consecutively injected antibodies (antibody 1) was measured. The aim was to detect the relative binding levels of a secondary antibody (antibody 2) in the presence of an already bound primary antibody. From these relative binding levels a quotient was calculated (Ab2/Ab1, molar ratio given in %, table 7).
(§2) 5 nM of biotinylated TWEAK was immobilized at 20 μl/min for 1 min on a streptavidin coated sensor flow cell. Primary and secondary mAbs were consecutively injected at 10 μl/min for 4 min into the system at 100 nM each until saturation of the respective TWEAK epitopes was achieved. As a reference an SA coated flow cell was used.
(§3) The system was washed with HBS-ET for 20 sec at 30 μl/min followed by two regeneration steps with 1 min at 30 μl/min 6 M GuadHCl and 100 mM HCl. […] The process was repeated by the immobilization of native biotinylated TWEAK protein (feed batch mode) on the same flow cell until the streptavidin sensor surface was completely saturated by biotinylated TWEAK.
Background: In SPR one partner is held on a chip, and binding of the other changes the refractive index at the surface.

For test [2], the target named is T2, Human recombinant soluble TWEAK (human, UniProt O43508 99-249).
T2 sequence: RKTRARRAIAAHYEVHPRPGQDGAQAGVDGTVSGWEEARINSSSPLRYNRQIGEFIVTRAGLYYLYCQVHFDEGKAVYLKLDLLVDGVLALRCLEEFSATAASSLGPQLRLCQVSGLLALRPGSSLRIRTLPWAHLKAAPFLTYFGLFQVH
The test is described as follows: cell-based or functional assay.

The target of test [3] is T3, Biotinylated human soluble TWEAK (amino acids 99-249 of SEQ ID NO: 60) (human, UniProt O43508 99-249, biotinylated (sites not given)).
T3 construct: Immobilised on the streptavidin sensor in the Biacore half-life assay; also called Human TWEAK; soluble human TWEAK
T3 sequence: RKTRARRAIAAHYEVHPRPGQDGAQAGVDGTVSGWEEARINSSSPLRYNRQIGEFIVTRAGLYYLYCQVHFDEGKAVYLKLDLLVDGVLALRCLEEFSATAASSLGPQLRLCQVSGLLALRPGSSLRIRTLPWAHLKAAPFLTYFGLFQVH
The test is described as follows: Biacore SPR, biotinylated TWEAK on SA sensor, antibody 100 nM as analyte, 25 C; t1/2 = ln(2)/(60 x kd). The protocol:
A Biacore 2000 instrument was used with a Biacore streptavidin coated sensor mounted into the system. The system buffer HBS-ET (10 mM HEPES pH 7.4, 150 mM NaCl, 1 mM EDTA, 0.05% Tween® 20) was used at a flow rate of 100 μl/min. The sample buffer was the system buffer. Biotinylated human soluble TWEAK (amino acids 99-249 of SEQ ID NO: 60) and biotinylated murine soluble TWEAK (amino acids 81-225 of SEQ ID NO: 61) was immobilized on different flow cells on the SA sensor at 150 RU each. The flow cell FC1 was used as a blank reference cell. Each antibody was injected into the system as an analyte at 100 nM at 100 μl/min for 2 min association time. The dissociation of the immune complexes were monitored for 5 min. The sensor surface was washed with HBS-ET for 10 seconds and regenerated using 2×2 minutes injections with 10 mM glycine pH 2.25. This procedure was done at 25° C. The kinetically rate limiting step of the complex dissociation phase in the interval [240 s-300 s] was taken to calculate the dissociation rate kd [1/s] (Biacore Evaluation Software 4.0). According to the equation t1/2 diss=ln(2)/(60×kd), the half-life of the immunocomplexes in minutes was calculated.

For test [4], the target named is T1, Biotinylated TWEAK. The test is described as follows: Biacore cross-blocking on immobilised biotinylated TWEAK; binding of antibody 2 after saturation with competitor antibody 1 TW-305chi (row), 100 nM each. The protocol:
as §1, §2, §3

In test [5] the target is T1, Biotinylated TWEAK. The test is described as follows: Biacore cross-blocking on immobilised biotinylated TWEAK; binding of antibody 2 after saturation with competitor antibody 1 TW-301chi (row), 100 nM each. The protocol:
as §1, §2, §3

The target of test [6] is T4, human Flag-tagged soluble TWEAK (amino acids 106-249) (human, UniProt O43508 106-249).
T4 construct: N-terminal placement here is only an order of listing; not shown: Flag tag
T4 sequence: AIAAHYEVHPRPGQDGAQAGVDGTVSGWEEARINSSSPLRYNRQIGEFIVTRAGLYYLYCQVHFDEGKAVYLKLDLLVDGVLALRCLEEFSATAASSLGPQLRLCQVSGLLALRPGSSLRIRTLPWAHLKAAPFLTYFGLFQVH
The test is described as follows: competition ELISA: antibody pre-incubated with human Flag-TWEAK 2.5 ng/ml, binding to coated human Fn14:Fc. The protocol:
96-well Maxisorp® plates (Nunc) were coated with 100 μl 1 μg/ml human Fn14:Fc (extracellular domain of human Fn14 (amino acids 1-75) fused to Fc portion of human IgG1) in PBS per well for 1.5 h at room temperature and blocked with a solution of 5% FBS in PBS for 30 minutes at room temperature under shaking. […] Wells were filled with 100 μl of anti-FLAG-HRP detection antibody, diluted 1:5000 in blocking buffer, and incubated for 1 h at room temperature. After four more wash steps, the signal was developed by addition of 100 μl 3,3,5,5-Tetramethylbenzidine (TMB) solution for approximately ten minutes. The reaction was stopped by adding 100 μl of 1 N HCl, and absorbance measured at 450 nm (reference wavelength 620 nm).
In general terms: In an ELISA, binding on a coated surface is turned into a signal by an enzyme label.

For test [7], the target named is Mouse soluble TWEAK (mouse) (UniProt O54907). The test is described as follows: competition ELISA: antibody pre-incubated with mouse soluble TWEAK 4 ng/ml, binding to coated mouse Fn14:Fc.

B1: TW-305chi (antibody, human IgG1, kappa, V domains shown)
VH: QEQLVESGGGLVQPGGSLTLSCKASGFDFSTYYMSWVRQAPGKGLEWIGTVYVRQGTTYYASWLNGRFTISSDNAQNTVDLKMNSLTAADTATYFCAKGGYNYDDAFVIWGPGTLVTVSF
VL: AIEMTQTPFSVSAAVGGTVTINCQASQNIYSNLAWYQQKPGQPPKLLMYTASYLASGVPSRFKGSGSRTEYTLTISGVQCADAATYYCQTAYYNSRPDTVAFGGGTEVVVKR
notes: also called chimeric antibody 305; Antibody 305 (chimeric)
On to B1, for which the “MR % (Ab2/Ab1 molar ratio)” value was 3% in the test with Biotinylated TWEAK [1], 0% with Biotinylated TWEAK [4] and 9% in the test with Biotinylated TWEAK [5]. In test [2], the “IL-8 Secretion IC50” value came to 104 ng/mL. Further, in test [3], the t/2 diss was found to be 147 min. Also, the IC50 (commonly the concentration that gives 50% inhibition) in test [6] came to 2.6 ng/mL.

B2: TW-301 (antibody, V domains shown)
VH: QSLEESGGGLVKPGASLTLTCTASGFTFNANYWICWVRQAPGKGLEWIACIYGGGNSGAYYASWATGRFTISRTSSTTVTLQMTSLTAADTATYFCARGPISRDLWGPGTLVTVSL
VL: DVVMTQTPASVSEPVGGTVTIKCQASQSIYSSLAWYQQKPGQPPKLLIYDAFDLASGVSSRFTGSGSGTQFTLTISDLECADAATYYCQSTDYGNSWDGNPFGGGTEVVVT
notes: also called Antibody 301; rabbit antibody 301
In the case of B2, the IC50 in test [7] came out at 4.7 ng/mL; in test [6], 3.4 ng/mL. Further, the “IL-8 Secretion IC50” value in test [2] came to 128 ng/mL.

B3: TW-301chi (antibody, human IgG1, kappa, V domains shown)
VH: QSLEESGGGLVKPGASLTLTCTASGFTFNANYWICWVRQAPGKGLEWIACIYGGGNSGAYYASWATGRFTISRTSSTTVTLQMTSLTAADTATYFCARGPISRDLWGPGTLVTVSL
VL: DVVMTQTPASVSEPVGGTVTIKCQASQSIYSSLAWYQQKPGQPPKLLIYDAFDLASGVSSRFTGSGSGTQFTLTISDLECADAATYYCQSTDYGNSWDGNPFGGGTEVVVTR
notes: also called chimeric antibody 301
As for B3, the IC50 in test [7] was found to be 6.4 ng/mL; in test [6], 2.8 ng/mL. Further, the “MR % (Ab2/Ab1 molar ratio)” value in the test with Biotinylated TWEAK [1], in the test with Biotinylated TWEAK [4] and in the test with Biotinylated TWEAK [5] was 0% throughout. Further, the “IL-8 Secretion IC50” value in test [2] was found to be 121 ng/mL. For the same molecule, in test [3], the t/2 diss is 110 min.

B4: TW-304chi (antibody, human IgG1, kappa, V domains shown)
VH: QSLEESGGDLVKPGASLTLTCKASGFSFSSTYYMCWVRQAPGKGLEWIGCIYVGSSGAPYYASWAKGRFTISKTSSTTVALQMTSLTPADTATYVCTRSVHFGDLWGPGTLVTVSS
VL: DVVMTQTPSPVSAAVGGTVTIKCQASQSIGNDLSWYQQKPGQRPKLLIYSVSTLASGVPSRFKGSGSGTEYSLTISDVQCADAATYYCQCIDYGNNYVGNTFGGGTEVVVKR
notes: also called chimeric antibody 304
In the case of B4, the “MR % (Ab2/Ab1 molar ratio)” value with Biotinylated TWEAK [1] was 0%; with Biotinylated TWEAK [4] it was 1%; with Biotinylated TWEAK [5], 6%. Further, the “IL-8 Secretion IC50” value in test [2] was found to be 122 ng/mL. In test [3], this molecule showed a t/2 diss of 37 min. The molecule further registered an IC50 in test [6] of 2.6 ng/mL.
